Results on 2 molecules are retold here after PMC4501333, “ATF4 licenses C/EBPβ activity in human mesenchymal stem cells primed for adipogenesis”.

Data set [1] addresses C/EBPβ (heterodimer subunit);ATF4 (heterodimer subunit) (human?;human?, UniProt P17676;P18848 1-345;1-351, |). Put plainly: EMSA; ATF4 added to C/EBPβ; higher affinity than C/EBPβ homodimer; antibodies inhibit heterodimer binding; EMSA: 10 mM HEPES pH 7.8, 50 mM NaCl, 10 mM MgCl2, 5 mM DTT, protease inhibitor, 0.25 mg/ml BSA, 5 ng/ul poly dIdC, 5% glycerol, ~5 fmol probe in 20 ul; native. As to conditions: protein: recombinant;recombinant; tags: N-terminal His (pET30a);N-terminal His (pET30a); copies: 1;1; label: 32P.

In the next data set the target is ATF4 (UniProt P18848 1-351). Put plainly: EMSA; ATF4 alone, up to 90 uM; probe 0.25 nM; EMSA: 10 mM HEPES pH 7.8, 50 mM NaCl, 10 mM MgCl2, 5 mM DTT, protease inhibitor, 0.25 mg/ml BSA, 5 ng/ul poly dIdC, 5% glycerol, ~5 fmol probe in 20 ul; native. The conditions noted are these: protein: recombinant; tags: N-terminal His (pET30a); chain copies: 2; label: 32P. In general terms: A gel shift assay detects complexes by their altered migration in electrophoresis.
Sequence of ATF4 (P18848 whole entry): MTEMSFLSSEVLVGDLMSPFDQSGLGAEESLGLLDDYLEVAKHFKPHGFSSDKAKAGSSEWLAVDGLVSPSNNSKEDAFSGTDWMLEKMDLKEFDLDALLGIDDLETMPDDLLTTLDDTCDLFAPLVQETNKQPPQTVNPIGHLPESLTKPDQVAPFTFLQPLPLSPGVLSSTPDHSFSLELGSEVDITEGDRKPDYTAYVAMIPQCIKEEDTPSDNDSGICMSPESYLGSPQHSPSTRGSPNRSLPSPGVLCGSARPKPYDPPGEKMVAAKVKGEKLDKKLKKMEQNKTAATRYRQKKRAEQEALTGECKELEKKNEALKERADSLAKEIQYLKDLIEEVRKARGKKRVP

Another data set concerns the target C/EBPβ (UniProt P17676 1-345). Put plainly: EMSA; C/EBPβ 100-900 nM; preferred site; probe 0.25 nM; EMSA: 10 mM HEPES pH 7.8, 50 mM NaCl, 10 mM MgCl2, 5 mM DTT, protease inhibitor, 0.25 mg/ml BSA, 5 ng/ul poly dIdC, 5% glycerol, ~5 fmol probe in 20 ul; native. The conditions noted are these: protein: recombinant; tags: N-terminal His (pET30a); chain copies: 2; label: 32P.

Sequence of C/EBPβ (heterodimer subunit);ATF4 (heterodimer subunit) (P17676 whole entry, chain 1 of 2): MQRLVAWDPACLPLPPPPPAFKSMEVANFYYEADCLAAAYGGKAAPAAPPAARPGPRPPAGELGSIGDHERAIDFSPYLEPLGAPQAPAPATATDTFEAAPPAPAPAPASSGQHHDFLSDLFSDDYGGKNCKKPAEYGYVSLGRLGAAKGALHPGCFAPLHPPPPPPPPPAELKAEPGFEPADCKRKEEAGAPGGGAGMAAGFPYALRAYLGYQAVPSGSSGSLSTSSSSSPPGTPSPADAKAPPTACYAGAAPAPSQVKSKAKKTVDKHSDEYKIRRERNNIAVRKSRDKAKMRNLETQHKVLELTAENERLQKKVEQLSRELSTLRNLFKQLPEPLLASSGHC
Sequence of C/EBPβ (heterodimer subunit);ATF4 (heterodimer subunit) (P18848 whole entry, chain 2 of 2): as the sequence (P18848 whole entry) above
Sequence of C/EBPβ (P17676 whole entry): as the sequence (P17676 whole entry, chain 1 of 2) above

B1: hybrid (ATF4 motif) EMSA probe (dsDNA)
DNA 1: GAGCAAATCTGATGCAATATAAGTC
DNA 2: GGACTTATATTGCATCAGATTTGCT
Take B1: the binding result is “binds” in data set [1] and “no binding” with ATF4.

B2: palindromic C/EBP EMSA probe (dsDNA)
DNA 1: GAGCAAATATTGCGCAATATAAGTC
DNA 2: GGACTTATATTGCGCAATATTTGCT
As for B2, the binding result is “no binding” with ATF4 and “binds” in the data set with C/EBPβ.
